Experimental data as given in patent US20260125446A1 (Eli Lilly, published 2026).

Legend:
cow serum albumin = target: T1, cow serum albumin (cow, UniProt P02769 25-607); experiment: SPR (Biacore 8K), albumin immobilized on CM5 chip, 25 C, steady state
T1 construct: Bought protein, immobilized on a CM5 chip by amine coupling; also called Cow SA
Experimental: (§1) The immobilization of the serum albumin to a Series S Sensor Chip CM5 surface is performed according to the manufacturer's instructions (Amine Coupling Kit BR-1000-50). Briefly, carboxyl groups on the sensor chip surfaces (flow cell 1 and 2) are activated by injecting 70 μL of a mixture containing 75 mg/mL EDC and 11.5 mg/mL NHS at 10 μL/min. Human, cynomolgus monkey, mouse, rat, pig, dog, cow and rabbit serum albumin are diluted in 10 mM sodium acetate pH 4.0 (BR-1003-49) at […] and then injected over the activated chip surfaces (flow cell 2, channel 1 to 8) at 10 μL/min for 180 sec (human, mouse, rat, pig and cow serum albumin are obtained from Sigma Aldrich (St. Louis, MO); cynomolgus monkey serum albumin is obtained from Hölzel Diagnostika (Cologne, Germany); dog serum albumin is obtained from Molecular Innovations (Novi, MI); and rabbit serum albumin is obtained from Fitzgerald Industries Intl. (Acton, MA). The various serum albumins are covalently immobilized through free amines onto a carboxymethyl dextran-coated sensor chip CM5 targeting a surface density of about 100 (62-145) RU. Excess reactive groups on the surfaces (flow cell 1 and 2) are deactivated by injecting 70 μL of 1 M ETA HCl—NaOH pH 8.5.
150 μl of sample is individually injecting sequentially across the immobilized serum albumins on the chip's surface and dissociating for 600 sec at 50 μL/min flow rate at 25° C. The surface is regenerated by injecting 10 mM glycine-HCl pH 1.5 (BR-1003-54) at 50 μL/min for 100 sec. The resulting sensorgrams are analyzed using Biacore 8K Insight Evaluation Software ([…]).

rabbit serum albumin = target: T2, rabbit serum albumin (rabbit, UniProt P49065 25-608); experiment: SPR (Biacore 8K), albumin immobilized on CM5 chip, 25 C
T2 construct: Bought protein, immobilized on a CM5 chip by amine coupling; also called Rabbit SA
Experimental: as §1
(§2) 150 μl of sample is individually injecting sequentially across the immobilized serum albumins on the chip's surface and dissociating for 600 sec at 50 μL/min flow rate at 25° C. The surface is regenerated by injecting 10 mM glycine-HCl pH 1.5 (BR-1003-54) at 50 μL/min for 100 sec. The resulting sensorgrams are analyzed using Biacore 8K Insight Evaluation Software (version 2.0.15.12933) 1:1 binding kinetics model fitting to calculate the binding kinetic parameter association rate (ka), dissociation rate (kd), and equilibrium dissociation constant (KD).

mouse serum albumin = target: T3, mouse serum albumin (mouse, UniProt P07724 25-608); experiment: SPR (Biacore 8K), albumin immobilized on CM5 chip, 25 C, 1:1 kinetic fit
T3 construct: Bought protein, immobilized on a CM5 chip by amine coupling; also called Mouse SA
Experimental: as §1, §2

rat serum albumin = target: T4, rat serum albumin (rat, UniProt P02770 25-608); experiment: as above
T4 construct: Bought protein, immobilized on a CM5 chip by amine coupling; also called Rat SA
Experimental: as §1, §2

[1] = target: T5, cynomolgus monkey serum albumin (cynomolgus monkey, UniProt A2V9Z4 25-608); experiment: as above
T5 construct: Bought protein, immobilized on a CM5 chip by amine coupling; also called Cyno SA
Experimental: as §1, §2

human serum albumin = target: T6, human serum albumin (human, UniProt P02768 25-609); experiment: as above
T6 construct: Bought protein, immobilized on a CM5 chip by amine coupling; also called Human SA
Experimental: as §1, §2

dog serum albumin = target: T7, dog serum albumin (dog, UniProt P49822 25-608); experiment: as above
T7 construct: Bought protein, immobilized on a CM5 chip by amine coupling; also called Dog SA
Experimental: as §1, §2

pig serum albumin = target: T8, pig serum albumin (pig, UniProt P08835 25-607); experiment: as above
T8 construct: Bought protein, immobilized on a CM5 chip by amine coupling; also called Pig SA
Experimental: as §1, §2

| Binder | Kd (cow serum albumin) [nM] | Kd (mouse serum albumin) [nM] | koff (mouse serum albumin) [s⁻¹] | kon (mouse serum albumin) [M⁻¹ s⁻¹] | Kd (rat serum albumin) [nM] | koff (rat serum albumin) [s⁻¹] | kon (rat serum albumin) [M⁻¹ s⁻¹] | Kd [1] [nM] | koff [1] [s⁻¹] | kon [1] [M⁻¹ s⁻¹] | Kd (human serum albumin) [nM] | koff (human serum albumin) [s⁻¹] | kon (human serum albumin) [M⁻¹ s⁻¹] | Kd (dog serum albumin) [nM] | koff (dog serum albumin) [s⁻¹] | kon (dog serum albumin) [M⁻¹ s⁻¹] | Kd (pig serum albumin) [nM] | koff (pig serum albumin) [s⁻¹] | kon (pig serum albumin) [M⁻¹ s⁻¹] | binding result (rabbit serum albumin) |
| --- | --- | --- | --- | --- | --- | --- | --- | --- | --- | --- | --- | --- | --- | --- | --- | --- | --- | --- | --- | --- |
| RLN Analog 3 (other, Single-chain fusion: VHH - (G4Q)5 L1 - RLN2 B chain (desB1) - L2 - RLN2 A chain) EVQLLESGGGLVQPGGSLRLSCAASGRYIDETAVAWFRQAPGKEREFVAGIGGGVDITYYADSVKGRFTISRDNSKNTLYLQMNSLRPEDTAVYYCAARPGRPLITSKVADLYPYWGQGTLVTVSSGGGGQGGGGQGGGGQGGGGQGGGGQSWMEEVIKLCGRELVRAQIAICGMSTWSGGGSGGSGGGQLYSALANKCCHVGCTKRSLARFC | 26 | 2.4 | 0.004 | 1.7e+06 | 1.6 | 0.0027 | 1.7e+06 | 0.36 | 0.00054 | 1.5e+06 | 0.076 | 0.00011 | 1.4e+06 | 0.7 | 0.0014 | 2e+06 | 4.8 | 0.0053 | 1.1e+06 | no binding (tested: 1000 nM (highest concentration tested)) |
| RLN Analog 7 (other, Single-chain fusion: VHH - (G4Q)5 L1 - RLN2 B chain (desB1) - L2 - RLN2 A chain) EVQLLESGGGLVQPGGSLRLSCAASGRYIDETAVAWFRQAPGKGREFVAGIGGGVDITYYADSVKGRFTISRDNSKNTLYLQMNSLRPEDTAVYYCAARPGRPLITSKVADLYPYWGQGTLVTVSSGGGGQGGGGQGGGGQGGGGQGGGGQSWMEEVIKLCGRELVRAQIAICGMSTWSGGGSGGSGGGQLYSALANKCCHVGCTKRSLARFC | 25 | 2.1 | 0.0041 | 2e+06 | 1.4 | 0.0028 | 2e+06 | 0.29 | 0.00059 | 2.1e+06 | 0.063 | 0.00012 | 1.9e+06 | 0.69 | 0.0015 | 2.2e+06 | 3.7 | 0.0054 | 1.5e+06 | no binding (tested: 1000 nM (highest concentration tested)) |
| RLN Analog 11 (other, Single-chain fusion: VHH - (G4Q)5 L1 - RLN2 B chain (desB1) - L2 of thirteen residues - RLN2 A chain (desA1-4)) EVQLLESGGGLVQPGGSLRLSCAASGRYIDETAVAWFRQAPGKEREFVAGIGGGVDITYYADSVKGRFTISRDNSKNTLYLQMNSLRPEDTAVYYCAARPGRPLITSKVADLYPYWGQGTLVTVSSGGGGQGGGGQGGGGQGGGGQGGGGQSWMEEVIKLCGRELVRAQIAICGMSTWSGGGSGGSGGSGGGALANKCCHVGCTKRSLARFC | 27 | 3.6 | 0.005 | 1.4e+06 | 1.3 | 0.0028 | 2.1e+06 | 0.48 | 0.00064 | 1.3e+06 | 0.17 | 0.00021 | 1.2e+06 | 1.3 | 0.0017 | 1.4e+06 | 7.3 | 0.0062 | 850000 | no binding (tested: 1000 nM (highest concentration tested)) |
| RLN Analog 4 (other, Single-chain fusion: VHH - (PGPQ)8 L1 - RLN2 B chain (desB1) - L2 - RLN2 A chain) EVQLLESGGGLVQPGGSLRLSCAASGRYIDETAVAWFRQAPGKEREFVAGIGGGVDITYYADSVKGRFTISRDNSKNTLYLQMNSLRPEDTAVYYCAARPGRPLITSKVADLYPYWGQGTLVTVSSPGPQPGPQPGPQPGPQPGPQPGPQPGPQPGPQSWMEEVIKLCGRELVRAQIAICGMSTWSGGGSGGSGGGQLYSALANKCCHVGCTKRSLARFC | 37 | 3 | 0.0039 | 1.3e+06 | 2.1 | 0.0026 | 1.2e+06 | 0.42 | 0.00053 | 1.3e+06 | 0.089 | 0.00011 | 1.2e+06 | 1 | 0.0014 | 1.4e+06 | 6.2 | 0.0053 | 860000 | no binding (tested: 1000 nM (highest concentration tested)) |
| RLN Analog 8 (other, Single-chain fusion: VHH - (PGPQ)8 L1 - RLN2 B chain (desB1) - L2 - RLN2 A chain) EVQLLESGGGLVQPGGSLRLSCAASGRYIDETAVAWFRQAPGKGREFVAGIGGGVDITYYADSVKGRFTISRDNSKNTLYLQMNSLRPEDTAVYYCAARPGRPLITSKVADLYPYWGQGTLVTVSSPGPQPGPQPGPQPGPQPGPQPGPQPGPQPGPQSWMEEVIKLCGRELVRAQIAICGMSTWSGGGSGGSGGGQLYSALANKCCHVGCTKRSLARFC | 21 | 1.8 | 0.0039 | 2.2e+06 | 1.7 | 0.0028 | 1.6e+06 | 0.32 | 0.00059 | 1.9e+06 | 0.078 | 0.00011 | 1.5e+06 | 0.66 | 0.0015 | 2.3e+06 | 4.1 | 0.0052 | 1.3e+06 | no binding (tested: 1000 nM (highest concentration tested)) |

Now from value to binder, other results behind:

| Kd (cow serum albumin) [nM] | Kd (mouse serum albumin) [nM] | koff (mouse serum albumin) [s⁻¹] | kon (mouse serum albumin) [M⁻¹ s⁻¹] | Kd (rat serum albumin) [nM] | koff (rat serum albumin) [s⁻¹] | kon (rat serum albumin) [M⁻¹ s⁻¹] | Kd [1] [nM] | koff [1] [s⁻¹] | kon [1] [M⁻¹ s⁻¹] | Kd (human serum albumin) [nM] | koff (human serum albumin) [s⁻¹] | kon (human serum albumin) [M⁻¹ s⁻¹] | Kd (dog serum albumin) [nM] | koff (dog serum albumin) [s⁻¹] | kon (dog serum albumin) [M⁻¹ s⁻¹] | Kd (pig serum albumin) [nM] | koff (pig serum albumin) [s⁻¹] | kon (pig serum albumin) [M⁻¹ s⁻¹] | Binder | binding result (rabbit serum albumin) |
| --- | --- | --- | --- | --- | --- | --- | --- | --- | --- | --- | --- | --- | --- | --- | --- | --- | --- | --- | --- | --- |
| 34 | 3.1 | 0.0046 | 1.5e+06 | 2.2 | 0.0032 | 1.4e+06 | 0.61 | 0.00068 | 1.1e+06 | 0.16 | 0.00019 | 1.2e+06 | 1.1 | 0.0017 | 1.5e+06 | 6 | 0.0058 | 970000 | RLN Analog 14 (other, Single-chain fusion: VHH - (PGPQ)8 L1 - RLN2 A chain (desA1-4) - L2 - RLN2 B chain (desB1)) EVQLLESGGGLVQPGGSLRLSCAASGRYIDETAVAWFRQAPGKGREFVAGIGGGVDITYYADSVKGRFTISRDNSKNTLYLQMNSLRPEDTAVYYCAARPGRPLITSKVADLYPYWGQGTLVTVSSPGPQPGPQPGPQPGPQPGPQPGPQPGPQPGPQALANKCCHVGCTKRSLARFCGGGSGGSGGGSWMEEVIKLCGRELVRAQIAICGMSTWS | no binding (tested: 1000 nM (highest concentration tested)) |
| 30 | 2.6 | 0.0049 | 1.8e+06 | 1.7 | 0.0033 | 2e+06 | 0.47 | 0.0007 | 1.5e+06 | 0.14 | 0.00019 | 1.4e+06 | 0.77 | 0.0016 | 2.1e+06 | 4.2 | 0.0058 | 1.4e+06 | RLN Analog 12 (other, Single-chain fusion: VHH - (G4Q)5 L1 - RLN2 B chain (desB1) - L2 of thirteen residues - RLN2 A chain (desA1-4)) EVQLLESGGGLVQPGGSLRLSCAASGRYIDETAVAWFRQAPGKGREFVAGIGGGVDITYYADSVKGRFTISRDNSKNTLYLQMNSLRPEDTAVYYCAARPGRPLITSKVADLYPYWGQGTLVTVSSGGGGQGGGGQGGGGQGGGGQGGGGQSWMEEVIKLCGRELVRAQIAICGMSTWSGGGSGGSGGSGGGALANKCCHVGCTKRSLARFC | no binding (tested: 1000 nM (highest concentration tested)) |
